Test results from paper PMC5760450, “FzlA, an essential regulator of FtsZ filament curvature, controls constriction rate during Caulobacter division” (Molecular Microbiology, 2017).
Where two headings read alike, the source gives them in different places.

T1: FtsZ (purified, C. crescentus) (Caulobacter crescentus, UniProt B8H080 1-508)
T1 sequence (looked up): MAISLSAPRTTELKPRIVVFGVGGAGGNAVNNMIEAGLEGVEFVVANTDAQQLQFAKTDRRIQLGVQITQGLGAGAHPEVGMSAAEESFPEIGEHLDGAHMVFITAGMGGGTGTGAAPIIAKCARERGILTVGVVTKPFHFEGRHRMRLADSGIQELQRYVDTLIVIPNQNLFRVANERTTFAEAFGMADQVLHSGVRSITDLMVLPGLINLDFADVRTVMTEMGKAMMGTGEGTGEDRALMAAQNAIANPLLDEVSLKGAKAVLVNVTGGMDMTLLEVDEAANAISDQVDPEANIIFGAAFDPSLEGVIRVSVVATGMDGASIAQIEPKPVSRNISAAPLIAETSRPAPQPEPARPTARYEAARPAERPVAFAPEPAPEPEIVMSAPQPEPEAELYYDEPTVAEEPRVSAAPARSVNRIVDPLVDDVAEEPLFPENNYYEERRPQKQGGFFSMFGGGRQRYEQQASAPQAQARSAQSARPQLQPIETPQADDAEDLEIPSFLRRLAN


What was measured:
[1] = molecular target: T1, FtsZ (purified, C. crescentus)
[2] = molecular target: T1, FtsZ (purified, C. crescentus); experiment: co-sedimentation; high speed co-pelleting: 4 µM FzlA variant ± 2 µM FtsZ, 50 mM MES pH 6.5, 50 mM KCl, 10 mM MgCl2, 2 mM GTP, 0.05% Triton X-100, 15 min room temperature, 280 000 x g 15 min 25°C; Coomassie gel quantified; conditions: both partners purified
[3] = molecular target: T1, FtsZ (purified, C. crescentus); experiment: co-sedimentation; low speed co-pelleting (higher order structures): 4 µM FzlA variant ± 2 µM FtsZ, 50 mM MES pH 6.5, 50 mM KCl, 2.5 mM MgCl2, 2 mM GTP, 16 000 x g 15 min room temperature; conditions: both partners purified
[4] = molecular target: T1, FtsZ (purified, C. crescentus); experiment: cell-based or functional assay

Molecule | % of FtsZ GTPase rate [1] | fold change of FzlA in pellet (with FtsZ vs. alone), high speed [2] | fold change of FzlA in pellet (with FtsZ vs. alone), low speed [3] | % of FtsZ GTPase rate [4]
FzlA^WB1 (D109R E122K) (from UniProt A0A0H3CDY2 1-228) (natural protein) | 85.5% | – | – | –
untagged WT FzlA (natural protein, Caulobacter crescentus, FzlA, Caulobacter crescentus; source: E. coli Rosetta (DE3) pLysS, purified (HisTrap, His6-SUMO cleaved with His6-ULP, second HisTrap flow through)) MSVERTLHHFPLDPASRQVRLALGEKRLPFVEMQVRYWEMPPEFTSLNPSGMPPVLVETKHQRNLVICETRAILEHIEETETEPPLLGRDPAERAEARRLLQWFDRKFDNEVNGFLLHEKMEKRLLRMGAPDLAALRQGREALRMHLGYIESLLQTRDWLAGRRMSLADFAAAAHLSVIDYFGDVPWKDFQAAKTWYMKLKSRPCFRPILADRWPGLAPAAHYDDLDF | – | 20.4 fold | 11.1 fold | –
FzlA^NB1 (W38A R124D) (natural protein, Caulobacter crescentus, FzlA, Caulobacter crescentus, with W38A R124D; Self-aggregates under the standard conditions (pH 6.5, 2:1 FzlA:FtsZ); source: E. coli Rosetta (DE3) pLysS, purified (HisTrap, His6-SUMO cleaved)) MSVERTLHHFPLDPASRQVRLALGEKRLPFVEMQVRYAEMPPEFTSLNPSGMPPVLVETKHQRNLVICETRAILEHIEETETEPPLLGRDPAERAEARRLLQWFDRKFDNEVNGFLLHEKMEKDLLRMGAPDLAALRQGREALRMHLGYIESLLQTRDWLAGRRMSLADFAAAAHLSVIDYFGDVPWKDFQAAKTWYMKLKSRPCFRPILADRWPGLAPAAHYDDLDF | – | 0.91 fold | 1.25 fold | 96.3%
FzlA^NB2 (E119K) (natural protein, Caulobacter crescentus, FzlA, Caulobacter crescentus, with E119K; source: E. coli Rosetta (DE3) pLysS, purified (HisTrap, His6-SUMO cleaved)) MSVERTLHHFPLDPASRQVRLALGEKRLPFVEMQVRYWEMPPEFTSLNPSGMPPVLVETKHQRNLVICETRAILEHIEETETEPPLLGRDPAERAEARRLLQWFDRKFDNEVNGFLLHKKMEKRLLRMGAPDLAALRQGREALRMHLGYIESLLQTRDWLAGRRMSLADFAAAAHLSVIDYFGDVPWKDFQAAKTWYMKLKSRPCFRPILADRWPGLAPAAHYDDLDF | – | 1.24 fold | 1.18 fold | 98.9%
FzlA^NH1 (P131A L136A R137E) (natural protein, Caulobacter crescentus, FzlA, Caulobacter crescentus, with P131A L136A R137E; also called no helices; source: E. coli Rosetta (DE3) pLysS, purified (HisTrap, His6-SUMO cleaved)) MSVERTLHHFPLDPASRQVRLALGEKRLPFVEMQVRYWEMPPEFTSLNPSGMPPVLVETKHQRNLVICETRAILEHIEETETEPPLLGRDPAERAEARRLLQWFDRKFDNEVNGFLLHEKMEKRLLRMGAADLAAAEQGREALRMHLGYIESLLQTRDWLAGRRMSLADFAAAAHLSVIDYFGDVPWKDFQAAKTWYMKLKSRPCFRPILADRWPGLAPAAHYDDLDF | – | 2.34 fold | – | 86.2%
FzlA^NH2 (R140D E141K) (natural protein, Caulobacter crescentus, FzlA, Caulobacter crescentus, with R140D E141K; also called no helices; source: E. coli Rosetta (DE3) pLysS, purified (HisTrap, His6-SUMO cleaved)) MSVERTLHHFPLDPASRQVRLALGEKRLPFVEMQVRYWEMPPEFTSLNPSGMPPVLVETKHQRNLVICETRAILEHIEETETEPPLLGRDPAERAEARRLLQWFDRKFDNEVNGFLLHEKMEKRLLRMGAPDLAALRQGDKALRMHLGYIESLLQTRDWLAGRRMSLADFAAAAHLSVIDYFGDVPWKDFQAAKTWYMKLKSRPCFRPILADRWPGLAPAAHYDDLDF | – | 7.21 fold | – | 85%
FzlA^NH3 (R144D) (natural protein, Caulobacter crescentus, FzlA, Caulobacter crescentus, with R144D; also called no helices; source: E. coli Rosetta (DE3) pLysS, purified (HisTrap, His6-SUMO cleaved)) MSVERTLHHFPLDPASRQVRLALGEKRLPFVEMQVRYWEMPPEFTSLNPSGMPPVLVETKHQRNLVICETRAILEHIEETETEPPLLGRDPAERAEARRLLQWFDRKFDNEVNGFLLHEKMEKRLLRMGAPDLAALRQGREALDMHLGYIESLLQTRDWLAGRRMSLADFAAAAHLSVIDYFGDVPWKDFQAAKTWYMKLKSRPCFRPILADRWPGLAPAAHYDDLDF | – | 3.51 fold | – | 89%
FzlA^UE1 (Y223A D227K F228A) (natural protein, Caulobacter crescentus, FzlA, Caulobacter crescentus, with Y223A D227K F228A; also called unknown essential activity; source: E. coli Rosetta (DE3) pLysS, purified (HisTrap, His6-SUMO cleaved)) MSVERTLHHFPLDPASRQVRLALGEKRLPFVEMQVRYWEMPPEFTSLNPSGMPPVLVETKHQRNLVICETRAILEHIEETETEPPLLGRDPAERAEARRLLQWFDRKFDNEVNGFLLHEKMEKRLLRMGAPDLAALRQGREALRMHLGYIESLLQTRDWLAGRRMSLADFAAAAHLSVIDYFGDVPWKDFQAAKTWYMKLKSRPCFRPILADRWPGLAPAAHADDLKA | – | 5.85 fold | 6.1 fold | 77.3%
FzlA^UE2 (D227K) (natural protein, Caulobacter crescentus, FzlA, Caulobacter crescentus, with D227K; also called unknown essential activity; source: E. coli Rosetta (DE3) pLysS, purified (HisTrap, His6-SUMO cleaved)) MSVERTLHHFPLDPASRQVRLALGEKRLPFVEMQVRYWEMPPEFTSLNPSGMPPVLVETKHQRNLVICETRAILEHIEETETEPPLLGRDPAERAEARRLLQWFDRKFDNEVNGFLLHEKMEKRLLRMGAPDLAALRQGREALRMHLGYIESLLQTRDWLAGRRMSLADFAAAAHLSVIDYFGDVPWKDFQAAKTWYMKLKSRPCFRPILADRWPGLAPAAHYDDLKF | – | 59 fold | 12.3 fold | 42.6%
FzlA^UN1 (P131A) (natural protein, Caulobacter crescentus, FzlA, Caulobacter crescentus, with P131A; also called unknown nonessential activity; source: E. coli Rosetta (DE3) pLysS, purified (HisTrap, His6-SUMO cleaved)) MSVERTLHHFPLDPASRQVRLALGEKRLPFVEMQVRYWEMPPEFTSLNPSGMPPVLVETKHQRNLVICETRAILEHIEETETEPPLLGRDPAERAEARRLLQWFDRKFDNEVNGFLLHEKMEKRLLRMGAADLAALRQGREALRMHLGYIESLLQTRDWLAGRRMSLADFAAAAHLSVIDYFGDVPWKDFQAAKTWYMKLKSRPCFRPILADRWPGLAPAAHYDDLDF | – | 9.85 fold | 9.86 fold | 55.7%
